The text below walks through data of the supplement of paper PMC10567573.

The chains are these.
B1: FUT8 (parent)
chain: YPSYKVREKIETVKYPTYPEAEK
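Note: lentivirally expressed fusions sorted by FACS into six bins by GFP to DsRed ratio, PSI derived from sequencing read proportions per bin multiplied by bin number.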

The variants in this series derive from B1. In words: protein stability index of a GFP-peptide fusion (GPS, HEK-293T) (PSI 1-6); higher = more stable. As to conditions: c terminus: native.
For YPSYKVREKIETVKYPTYPFAEK [E20F], the protein stability index is 3.39.
Turning to YPSYKVREKIETVKYPTYPNAEK [E20N], the protein stability index is 4.41.
In the case of YPSYKVREKIETVKYPTYPGAEK [E20G] it was 4.26.
Next, YPSYKVREKIETVKYPTYPVAEK [E20V]: 3.48.
Next, YPSYKVREKIETVKYPTYPTAEK [E20T]: 3.87; YPSYKVREKIETVKYPTYPIAEK [E20I]: 2.88.
In the case of YPSYKVREKIETVKYPTYPSAEK [E20S], the protein stability index was 3.56.
In the case of YPSYKVREKIETVKYPTYPKAEK [E20K] it was 4.69; in that of YPSYKVREKIETVKYPTYPDAEK [E20D], 4.62; in that of YPSYKVREKIETVKYPTGPEAEK [Y18G], 3.52.
Next, YPSYKVREKIETVKYPTSPEAEK [Y18S]: 4.68; YPSYKVREKIETVKYPTCPEAEK [Y18C]: 4.98.
On to YPSYKVREKIETVKYPTLPEAEK [Y18L], for which the protein stability index was determined as 3.87.
In the case of YPSYKVREKIETVKYPTQPEAEK [Y18Q] it was 4.54.
For the variant YPSYKVREKIETVKYPTKPEAEK [Y18K], the protein stability index was found to be 2.85.
In the case of YPSYKVREKIETVKYPTHPEAEK [Y18H] it was 4.31; in that of YPSYKVREKIETVKYPTFPEAEK [Y18F], 3.89.
In the case of YPSYKVREKIETVKYPTIPEAEK [Y18I] it was 3.96; in that of YPSYKVREKIETVKYPTTPEAEK [Y18T], 4.7; in that of YPSYKVREKIETVKYPTRPEAEK [Y18R], 5.1.
Next, YPSYKVREKIETVKYPTMPEAEK [Y18M]: 4.15; YPSYKVREKIETVKYPTAPEAEK [Y18A]: 4.08; YPSYKVREKIETVKYPTWPEAEK [Y18W]: 3.63.
Regarding YPSYKVREKIETVKYPTDPEAEK [Y18D], the protein stability index turned out to be 4.47.
With YPSYKVREKIETVKYPTNPEAEK [Y18N], the protein stability index is 4.63.
Next, YPSYKVREKIETVKYPTEPEAEK [Y18E]: 4.65; YPSYKVREKIETVKYPTPPEAEK [Y18P]: 5.06.
Next, YPSYKVREKIETVKYPTVPEAEK [Y18V]: 4.24; YPSYKVREKIETVKYPTYWEAEK [P19W]: 2.37.
Next, YPSYKVREKIETVKYPTYDEAEK [P19D]: 3.66.
For the variant YPSYKVREKIETVKYPTYHEAEK [P19H], the protein stability index was 3.18.
On to YPSYKVREKIETVKYPTYSEAEK [P19S], for which the protein stability index came out at 3.94.
In the case of YPSYKVREKIETVKYPTYYEAEK [P19Y] it was 1.25.
Next, YPSYKVREKIETVKYPTYGEAEK [P19G]: 3.94; YPSYKVREKIETVKYPTYIEAEK [P19I]: 3.59; YPSYKVREKIETVKYPTYFEAEK [P19F]: 2.01.
On to YPSYKVREKIETVKYPTYREAEK [P19R], for which the protein stability index amounted to 3.71.
In the case of YPSYKVREKIETVKYPTYTEAEK [P19T], the protein stability index is 3.45.
In the case of YPSYKVREKIETVKYPTYCEAEK [P19C] it was 3; in that of YPSYKVREKIETVKYPTYQEAEK [P19Q], 3.85.
Turning to YPSYKVREKIETVKYPTYKEAEK [P19K], the protein stability index is 4.19.
YPSYKVREKIETVKYPTYNEAEK [P19N]: the protein stability index was 4.11.
As to YPSYKVREKIETVKYPTYAEAEK [P19A], the protein stability index came out at 3.79.
In the case of YPSYKVREKIETVKYPTYEEAEK [P19E] it was 4.67; in that of YPSYKVREKIETVKYPTYVEAEK [P19V], 2.98.
With YPSYKVREKIETVKYPTYMEAEK [P19M], the protein stability index stood at 3.04.
In the case of YPSYKVREKIETVCYPTYPEAEK [K14C] it was 4.18.
Next, YPSYKVREKIETVHYPTYPEAEK [K14H]: 3.95.
In the case of YPSYKVREKIETVGYPTYPEAEK [K14G] it was 4.98; in that of YPSYKVREKIETVWYPTYPEAEK [K14W], 1.68.
As to YPSYKVREKIETVIYPTYPEAEK [K14I], the protein stability index came out at 3.88.
Next, YPSYKVREKIETVNYPTYPEAEK [K14N]: 4.62; YPSYKVREKIETVYYPTYPEAEK [K14Y]: 3.43.
Take YPSYKVREKIETVTYPTYPEAEK [K14T]: the protein stability index was 3.61.
In the case of YPSYKVREKIETVEYPTYPEAEK [K14E] it was 4.03; in that of YPSYKVREKIETVRYPTYPEAEK [K14R], 4.27; in that of YPSYKVREKIETVLYPTYPEAEK [K14L], 2.97.
In the case of YPSYKVREKIETVAYPTYPEAEK [K14A] it was 4.17; in that of YPSYKVREKIETVPYPTYPEAEK [K14P], 4.09; in that of YPSYKVREKIETVSYPTYPEAEK [K14S], 4.44.
For YPSYKVREKIETVQYPTYPEAEK [K14Q], the protein stability index came to 4.21.
Next, YPSYKVREKIETVFYPTYPEAEK [K14F]: 2.73; YPSYKVREKIETVVYPTYPEAEK [K14V]: 3.65; YPSYKVREKIETVMYPTYPEAEK [K14M]: 3.85.
Next, YPSYKVREKICTVKYPTYPEAEK [E11C]: 3.91.
Next, YPSYKVREKITTVKYPTYPEAEK [E11T]: 3.5; YPSYKVREKIITVKYPTYPEAEK [E11I]: 3.34.
As for YPSYKVREKIHTVKYPTYPEAEK [E11H], the protein stability index was determined as 3.8.
Next, YPSYKVREKIQTVKYPTYPEAEK [E11Q]: 4.27; YPSYKVREKIYTVKYPTYPEAEK [E11Y]: 3.44; YPSYKVREKIGTVKYPTYPEAEK [E11G]: 3.59.
In the case of YPSYKVREKIFTVKYPTYPEAEK [E11F] it was 3.15; in that of YPSYKVREKILTVKYPTYPEAEK [E11L], 4.01.
Next, YPSYKVREKIVTVKYPTYPEAEK [E11V]: 3.59; YPSYKVREKINTVKYPTYPEAEK [E11N]: 3.1.
In the case of YPSYKVREKIMTVKYPTYPEAEK [E11M], the protein stability index is 3.46.
Next, YPSYKVREKIATVKYPTYPEAEK [E11A]: 4.3; YPSYKVREKIPTVKYPTYPEAEK [E11P]: 4.12.
Next, YPSYKVREKISTVKYPTYPEAEK [E11S]: 4.07; YPSYKVREKIKTVKYPTYPEAEK [E11K]: 4.32.
As for YPSYKVREKIEGVKYPTYPEAEK [T12G], the protein stability index amounted to 4.01.
In the case of YPSYKVREKIEQVKYPTYPEAEK [T12Q] it was 4.94; in that of YPSYKVREKIEYVKYPTYPEAEK [T12Y], 4.15.
For the variant YPSYKVREKIEKVKYPTYPEAEK [T12K], the protein stability index came to 4.71.
Next, YPSYKVREKIEDVKYPTYPEAEK [T12D]: 4.57; YPSYKVREKIENVKYPTYPEAEK [T12N]: 3.62.
Next, YPSYKVREKIEHVKYPTYPEAEK [T12H]: 3.25.
YPSYKVREKIEWVKYPTYPEAEK [T12W]: the protein stability index amounted to 3.21.
In the case of YPSYKVREKIERVKYPTYPEAEK [T12R] it was 4.05; in that of YPSYKVREKIEPVKYPTYPEAEK [T12P], 4.49.
Next, YPSYKVREKIEEVKYPTYPEAEK [T12E]: 4.33.
Next, YPSYKVREKIECVKYPTYPEAEK [T12C]: 4.17; YPSYKVREKIELVKYPTYPEAEK [T12L]: 3.14; YPSYKVREKIEAVKYPTYPEAEK [T12A]: 3.92.
Take YPSYKVREKIESVKYPTYPEAEK [T12S]: the protein stability index turned out to be 3.91.
Next, YPSYKVREKIEFVKYPTYPEAEK [T12F]: 3.06; YPSYKVREKIEVVKYPTYPEAEK [T12V]: 2.14.
